Experimental findings from article PMC12090190 (ACS Chemical Biology, 2025) are described below.

Series [1] concerns the target T1, WT hOTC (human ornithine transcarbamylase) (Homo sapiens, UniProt P00480).
T1 sequence (P00480 33-354): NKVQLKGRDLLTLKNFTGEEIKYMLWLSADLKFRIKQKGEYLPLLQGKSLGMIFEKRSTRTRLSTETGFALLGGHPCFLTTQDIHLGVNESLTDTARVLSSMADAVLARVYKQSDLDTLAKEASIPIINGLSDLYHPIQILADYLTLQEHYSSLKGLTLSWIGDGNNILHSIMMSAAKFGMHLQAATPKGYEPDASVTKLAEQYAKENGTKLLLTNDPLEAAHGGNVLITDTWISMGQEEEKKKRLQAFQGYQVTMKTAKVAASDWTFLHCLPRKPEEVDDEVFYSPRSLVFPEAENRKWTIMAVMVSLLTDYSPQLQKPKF
The series can be described thus: differential scanning fluorimetry. Type of series: binding. The settings on record: 4 μM enzyme; 10 mM sodium phosphate. (Differential scanning fluorimetry follows unfolding on heating by fluorescence.)

Substrate in series [2]: NC(=O)OP(=O)(O)O
The series is described as follows: discontinuous colorimetric citrulline assay, steady-state kinetics. Type of series: biochemical, Homo sapiens. The conditions noted are these: co-substrate ornithine.

Consider `O=P(O)(O)O` [phosphate], for which the dTm entry in series [1] is “The addition of phosphate generally increased the melting temperature of these variants”.

B1: WT hOTC (human ornithine transcarbamylase) (Homo sapiens) (protein)
chain: T1 sequence (P00480 33-354)
What is called Km is the concentration of substrate that gives half-maximal velocity. By kcat is commonly meant the maximal rate divided by the concentration of active sites. By kcat/Km is commonly meant the turnover number divided by the Michaelis constant. In the case of B1, in series [2], the Michaelis constant (Km) amounted to 240 ± 70 µM, the kcat is 56 ± 9.8 s⁻¹ and the kcat/Km came out at 240000 ± 29000 M⁻¹ s⁻¹.
